From the DeepSol protein solubility set

Test: soluble on expression in E. coli; label from the status in PepcDB or PDB records

Sequence	soluble on expression in E. coli
MGSDKIHHHHHHENLYFQGMWEIYDAMINGIPEDFLVDELVCGTTHSVIRSGNGVGLGPNRPFETRMPMLTQNLLGLPLRVAAGCVKSWNYVEASIGLAAINAYYNNPQVAREHGVIFSDAKRVEDRMNDPFIMSQNEVKGKKVGVVGHFPHLESLLEPICDLSILEWSPEEGDYPLPASEFILPECDYVYITCASVVDKTLPRLLELSRNARRITLVGPGTPLAPVLFEHGLQELSGFMVKDNARAFRIVAGAEKVKIYSAGQKVTIKK	soluble
MAHHHHHHMVGIKYRKNFCDKMLRRTQQRAISQYKFGQPSLTRAFGPVPRERQVAQAGKFMSTKLPNGVRVVSHDLDGAHSVVGVYVEAGPKYDPLGCPGLSHVMRYAIQTSNMDSSLFQVDRTMRSTGNAYGHGEICKRYIHWKTEGRRDMWEKPFAMIATGVVAPRFHESDLERFRDTMDNQREELRWQNPREYCVDALETVAFFKEPLASPRMVPPESNDRCNQKVLLDHWAAYFQPGNITVAAVNIPHDALLAAYTSLPYPHSAEAPHHARSRPPTLSHASESAQFYPGRQYIVYEDRAKNMGTVPDMKEEVIAALGAPTFGRDEDVKKYATALVAREVYQASIESVMPAALTTSHGVQSFYRPYSSAGLIGITIRGAPKEIAGFLDAARGCFPIKVKDDEVAAGRARAAMAFTRNHLDMVRDYCDFIATLSVTPQQLMEAIGAVSAGEVDAALRTLSAVPPAVFVTGSTFTFPKVPSLKK	not soluble
MTNNSGNKVQDIMTKNVATISPNQTVQEAAQIMSQKNIGALPVVENGQVKGMITDRDITLRVSSQGKDPSTVKVAEVMTNQVVTGTPNMSVQEAANVMAQHQVRRLPIVENNQLQGIVALGDIATNSASNEAAEQALTNISEPSQPQG	soluble
MGSDKIHHHHHHMKILHYIPSIDRTSGGVGTYMQLLTAELGKLVELHVVTHKETNPLELKNCHVHFIENNNPFLPKEKKNFIFLLNEIKPDVFHANCCWLPMSAYTAMWARNAGYHVVYTPHGMLEPWIMKRHYWTKKFPASLLFQKRGIQIANVIHATAESEKHNLTQLGWNNNIEVIPNCVEIDKITMKESWIRNKNILFLSRVHVKKGINFLIEATANLKTELQGYTINIAGEGEESYINELKQLASKLGVENLIHFIGGVYGDKKWELFKKADLFVLPTHSENFGIVVAEALACGTPVITTQGTPWQELESYHCGWWTEIGTEATTKALKEFLQCTETQLEQMGKNGRKLIEEKYSSQKVAQDMVELYKKVCL	not soluble
MGLMKFQLFIQPKLDVLQGNIVEYEILLRDDSAVPRFPLSELEAVLADEELYLAFSEWFSEAFLDVLKKYPNDRFAINIAPQQLFYIETLHWLDKLKSESHRITVEMTEDIFDVPGHKRHLNANDKNAFILNKIKVIHGLGYHIAIDDVSCGLNSLERVMSYLPYIIEIKFSLIHFKNIPLEDLLLFIKAWANFAQKNKLDFVVEGIETKETMTLLESHGVSIFQGYLVNKPFPV	soluble
MSLARVFNACLFFYKIGGKMAMGEFDLIKRYFQQQILVDDSVQLSIGDDCALVSVPENYQLAITTDTMVENTHFLPTISPEDLAYKAVATNLSDLAAMGAQPKWVSLALTLPNVDENWISTFSQSLLHTLKQYNVTLIGGDTTKGNLSITITAQGFVEKNKGICRHKAQIGDLIYVSSTLGDSAAGLTQILLGKSAVDSDDVFLQQRHLRPTPRIELGQALIGIAHVAIDLSDGLISDLGHILERSQCSAEVELTALPLSSSILNKYDRTQAEQFALSGGEDYELCFTIPPEYKDELELRLKKLNVPCTCIGKINEKCGDFSPRFLRDGKPVNITFSSGFDHFKESKEGHHHHHH	soluble
MGSDKIHHHHHHMNFDVAIIGGGLAGLTCAIALQQRGKRCVIINNGQAAIDFASGSLDLLSRMPSTTYGENRAVENLKENITALRNELPAHPYSLLGAEKVLAKAQDFERLANELHLDLIGSTEKNHWRVTGLGSLRGAWLSPNSVPTVQGNEPFPHKRIAVLGIEGYHDFQPQLLAANLVLNPQFEHCEVTSGFLNIPQLDELRKNAREFRSVNISQLLEHKLAFKDLVKEIIESAQGAEAVFLPACFGLENQEFMTALRDATKLALFELPTLPPSLLGMRQRIQLRHKFESLGGLMINGDSALNATFEGNQVRCINTRLLEDEEITADNFVLASGSFFSKGLISEFDKIYEPVFESDIIGVEGFNNKDRFTWTAHRFAHPQPYQSAGVAINAQCQVKKCGQFLTNLYAVGNVIGGFNALELGCGSGVAVVTALAVADEILAK	not soluble
MPQFSNRRRVPHSAQQMFDLVADVERYPQFVPLCKALKIRERIQQPDGNEVVIADMTVSFKLVQETFTSRVTLDRANLKILVEYLKGPFSNLENRWTFAAKTERACEVGFFIAYEFKSRMLATLMGAMFDTAFHRFAEAFETRADQIYGTGPKLSRALEHHHHHH	not soluble
MAGQEFEKLLFYIVTVPFFVRAEPTTGELINPQAGAPFFLATAATTMDYEVEMVITSEAGYLLMRDNAKKVKVRPGVEQTVYDFIKMAKDAGVKIYLCTPSLDLTDIYKEEDVNKEICDGILGGAAFLDKLMSGEYAVITL	not soluble
MKFSALGDQAIIVTFGEEIKRDIYEKVQRLFQALQQHPFAGMIECVPSFTSLAVYYNVYEVWKGNERSERSHDYVRQYIKELCDSYKEEVKQDVKHISIPVCYGGEYGPDLEEVAHYHGLQVEDVIRIHSETTYFVYMLGFTPGFPYLGGLSKELETPRKETPRLQISPGSVGIGGNQTGIYPLETPGGWNIIGRTPISLFNPEEEIPTYIQSGMYLRFIPITKEEYVSLEGAKKWMLEHHHHHH	soluble
MGSDKIHHHHHHMAISERDIEHIFERLRSGVVPERGLEAFAVGIDKQRTEIHRQFQLAANSEGVFKFLRGGYGCGKTFMSRLAILDAQAQGFATSFVVVSDNDLHFYKFDDVYRKVVQELGTSSCPRGALSDIIDRWIARVEDALIAGGADENSDEFDTLVQQRIEEELASLTGGKAPEDMARVLRAIFTFKQKGEIAEASALLSWLAGSENVAATAKKAAGIKGDIASRDALDYLHGILEIVKAAGYKGLVIVIDEVETVLRMRHDSRGKSLNGIRQICDAADRYRGLLWIYTGTPEFFDTKRGVAGLEPLHDRIQFLTLAGFANPRQPQLELKPFDARRLKEVALKLREIFPTANRTGIVNKVTFEFIERLVAKVTAGFKGDVGVVPRQFLRQFVNILDLASENDEFDPMSAEGFEPTDLNEVELLIREGRTYFDEDPADIQGYAAVEF	not soluble
GMSTPSPALFFNTVNAYQRSAAIKAAVELNVFTAISQGIESSQSLAQKCQTSERGMRMLCDYLVIIGFMTKQAEGYRLTSDSAMFLDRQSKFYVGDAIEFLLSPMITNGFNDLTAAVLKGGTAISSEGTLSPEHPVWVQFAKAMSPMMANPAQLIAQLVNENKIEPLKVLDISASHGLFGIAVAQHNPNAEIFGVDWASVLEVAKENARIQGVASRYHTIAGSAFEVDYGNDYDLVLLPNFLHHFDVATCEQLLRKIKTALAVEGKVIVFDFIPNSDRITPPDAAAFSLVMLATTPNGDAYTFAEYESMFSNAGFSHSQLHSLPTTQQQVIVAYK	soluble
MSDDGSDTSFEEPHGDFDYTLLFEKFNKEVPKMEEVMKAAKKFGASHRHLINKFILEPSMSAKKMNLMFAKHLTTAIWKRHPDTVMQIQTNREEARQLSKLIVKTMNDDEGKGPKPFRPWRFVISTDEKSPTEFVTMTGCGRNSSVISEASDLTKVERALLLVILEEMISSDGTVQMDWVHSQIRHEPCKMPGPKCDIFMAKMMRQRYFLMTDENEVAEITPRILVELEPWLRAKFTGDLKTCELCRKIISRSVYTAECQKCHALCHFNCFKNATIISHQDNVECQKCNQNLSLNEVLKQIDTKKATGVPRSRDTVARSPSPDSDVPKAPSRTQRAKSKSKTPAPVDSDDDMTITPRPTRGKRNQRVPDSDSE	not soluble
MVIGQKVLLARIPKMGDNYSTYLLDIEGTVCPISFVKETLFPYFTNKVPQLVQQDTRDSPVSNILSQFHIDNKEQLQAHILELVAKDVKDPILKQLQGYVWAHGYESGQIKAPVYADAIDFIKRKKRVFIYSSGSVKAQKLLFGYVQDPNAPAHDSLDLNSYIDGYFDINTSGKKTETQSYANILRDIGAKASEVLFLSDNPLELDAAAGVGIATGLASRPGNAPVPDGQKYQVYKNFETL	not soluble
MGSDKIHHHHHHMQRLMNNIMKVENFLAQKSINYDKIDRFLMFRMYEKYKKYFKNIPIIQLIGTNGKGSTGRYLTQLLENLNYKIGHYTSPHIFSFNERFYLDGKIANDEELEQAHIRLEEIFKQDLQKLSYFEYATFLAMILFQKCDFIVLEAGVGGEYDATSIFERRMSIFTRIGFDHIQILGNSLEDIARTKLKVMAPIALISDEQEQNVLNLAKKIAFLKKANLQVSSLNPFLKEKFEIYCKKFVLPYFLKHNLKLALKACEILTSQEKTLEALKKLQELNLQGRCQEISPNFFVDVGHNPMAAKAMLDKFQGEKINLIYNAYLDKDIFQILNTLKPIIDTIQIYKYKSAERKLADDEIYSIASKLGMQCKEFVKLEENKKNLVFGSFMLVENFLKEWCGKK	not soluble
MGSDKIHHHHHHMAKKHRKESLDALFREKVLLEMLKIAGVGMWTYSTETGRLRYIGFADTIHRHDELQYVDPADYLKLMNGEDLQTVTQFMADIHAGRPPQEGIRYKIHGNGEDFYLENHVVTCQPLGNGFYYLKGYVKNITAQVMEANRLCIEKERTEQADRLRSAFFAHVSRELRGPLNRIEELASQMVHAESVEEREECFHRIQENRRMAMKIADALHAVSQLPVSTYEPYHSPMQLCLIYRDLLMENGYSHNPEDGEQEENANFLSLLFS	not soluble
MATSKILLYYAFTPLSDPKAVQLWQRELCESLNLRGRILISTHGINGTVGGDIDDCKAYIKKTREYPGFNRMQFKWSEGGAEDFPKLSVKVRDEIVAFGAPDELKVDENGVVGGGVHLKPQQVNELVEARGDEVVFFDGRNAMEAQIGKFKDAVVPDVETTHDFIAEIESGKYDDLKDKPVVTYCTGGIRCEILSSLMINRGFKEVYQIDGGIVRYGEQFGNKGLWEGSLYVFDKRMHMEFGEDYKEVGHCIHCDTPTNKFEHCLNEDDCRELVLMCPDCFANVETRHCKRERCAAIAADFAEQGIDPLVTS	not soluble
MLRHLGQLSVAHRGSGLHDAYVVNPAQQLDPELAPPPVVYVLETSYVALLLKNPEDVGYQLARRHDYCFALAPHLCILYSRHRVCERVKHHHSHPPPATCSS	soluble
MKKVRDPLEVTVVGQNIIVADDNYKWLQILPEKKRYSITVMFDNKGNPLEYYFDINIKNITQKGNARTVDLCLDVLALPSGEYELVDEDDLMFALESEQIT	not soluble
MGSDKIHHHHHHMVQAIDNTIATNFLTDAVVERHNFSQLNKTRIRFRIQLKKSTKSAAPKWADVLQAEVSEIESDLVKVTNSEVGLRGIKVFKKLDEAAAQLRQEIASVQEWMSADTGDWVCPIDLAPLVWNQLINIRDNIAPGLRNQLKADYEAGLVDYQERIDQFLSLNTWELAQDKQESVKANLLRAFPTLTDLEDYLQVVIGRPVIIPALSEQLNQQQAECLDQITKFIQQYDQNLEQRLRESALAGGEQLAAQLLEELADWEPGRKPVQFKKKMERHLMKVQVLLANADSEAGSSLEAMMTHLDSIVNDPAIESKNLGSDTRSQLQQKMQEIRIKLLDEQRNLQSLATEDVGLSKATVMSFKFR	not soluble
MGQLVDGVWHDTWYETKSTGGHFKRSESAFRNWVTPDGAPGLTGKGGFPAQSGRYHLYVSLACPWAHRTLLMRQLKGLEDHIAVSVVHPLMLDHGWTFGTDFEAATGDSLYQHEFLYQLYLHAKPDYSGRVTVPVLWDTEQHTVVSNESADIIRMLNSAFDGVGAIAGDYYPEALRTQIDELNSWIYDKVNNGVYKAGFATTQSAYDESASTVFAALSDLETILAKQRYLTGEQLTEADLRLWTTLIRFDPVYHTHFKCDKYRLSDYPNLFGFLRDIYQMPGIAETVDMAHIRHHYYRSHGLEHHHHHH	not soluble
